Our source for the Km, kcat and kcat/Km values is patent publication US8765433B2, “Alcohol dehydrogenases (ADH) useful for fermentive production of lower alkyl alcohols” (priority 2009, dated 2014).

Usually Km stands for the concentration of substrate that gives half-maximal velocity. As usually defined, the kcat is the maximal rate divided by the concentration of active sites. By kcat/Km is commonly meant the second-order rate constant that governs catalysis at low substrate concentration.

Substrate in data set [1]: CC(C)C=O
Nature of the data set: isobutyraldehyde reduction kinetics (A340, initial rates). Format: biochemical, Thermus sp. ATN1. Conditions: other: 30° C., pH 7.0, NADH specific.

Substrate in data set [2]: CC(C)C=O
Described as above. Conditions: other: 30° C., pH 7.0, 200 μM NADH. It counts as biochemical, horse.

Substrate in data set [3]: CC(C)CO
Kind of data set: isobutanol oxidation kinetics. It counts as biochemical, horse. Conditions: other: 30° C., pH 8.8, 7.5 mM NAD. Here is the method:
(§1) As a routine practice, the crude extracts and purified proteins were assayed for butanol oxidation activity, in order to ensure that the recombinant proteins were active throughout the purification process. […] Alcohol oxidation activities were carried out in 50 mM sodium phosphate buffer at pH 8.8 and aldehyde reduction reactions were assayed in 190 mM potassium phosphate buffer at pH 7.0. Depending on the nature of reaction being carried out, the enzyme and cofactor stocks were diluted in the reaction buffers at the respective pHs. Either buffer or cell extract prepared from the proprietary E. coli strain (with no ADH plasmid) was used as the negative control for assays with purified protein and cell-free extracts, respectively.
(§2) Kinetic constants of the ADH enzymes were calculated and compared to identify those candidate ADH enzymes with the most desirable properties for the conversion of isobutyraldehyde to isobutanol in the last step of the engineered pathway for isobutanol production. The assays for determining the kinetic constants were carried out using initial rates from the assays described above. […] The concentration of a given enzyme was such that it was conducive for the measurement of initial velocities over a 1-min time course. […] The kcat/KM is derived from the individual numbers of kcat and KM and not an experimentally determined value. […]

Substrate in data set [4]: CC(C)C=O
Kind of data set: isobutyraldehyde reduction kinetics (A340, initial rates). Format: biochemical, Clostridium beijerinckii. Conditions: other: 30° C., pH 7.0, NADPH specific.

Substrate in data set [5]: CC(C)C=O
The data set is described as above. Format: biochemical, Saccharomyces cerevisiae. Conditions: other: 30° C., pH 7.0, NADPH specific.

Substrate in data set [6]: NC(=O)C1=CN([C@@H]2O[C@H](COP(=O)(O)OP(=O)(O)OC[C@H]3O[C@@H](n4cnc5c(N)ncnc54)[C@H](O)[C@@H]3O)[C@@H](O)[C@H]2O)C=CC1
Nature of the data set: purified protein, by the assay type. Conditions: other: cofactor; 30.0 °C.

Substrate in data set [7]: CC(C)C=O
Kind of data set: purified protein, by the assay type. It counts as biochemical, Beijerinckia indica. Conditions: other: 30° C., pH 7.0, 200 μM NADH.

Substrate in data set [8]: CC(C)CO
Nature of the data set: isobutanol oxidation kinetics. Conditions: other: 30° C., pH 8.8, 7.5 mM NAD. It counts as biochemical, Beijerinckia indica. The method, then: as §1, §2

Substrate in data set [9]: CC(C)C=O
Kind of data set: isobutyraldehyde reduction kinetics (A340, initial rates). Conditions: other: 30° C., pH 7.0, NADH specific. It counts as biochemical, Methylocella silvestris BL2. From the text:
(§3) This example describes preparation of ADH-gene constructs for over-expression/purification and measurement of enzyme activities using a time-course assay. Horse-liver ADH (HLADH; A-6128) was purchased from Sigma. Achromobacter xylosoxidans SadB (SadB), Saccharomyces cerevisiae ADH6 (ScADH6) and ADH7 (ScADH7), Entamoeba histolytica ADH1 (EhADH1), Bos Taurus Aldehyde Reductase (BtARD), Beijerinckia indica subsp. Indica ATCC 9039 (BiADH), Clostridium beijerinckii ADH (CbADH), Rana perezi ADH8 (RpADH8), Rattus norvegicus ADH1 (RnADH1), Thermus sp. ATN1 ADH (TADH), Phenylobacterium zucineum HLK1 ADH (PzADH), Methylocella silvestris BL2 ADH (MsADH), Acinetobacter baumannii AYE ADH (AbADH), Geobacillus sp. WCH70 ADH (GbADH), Vanderwaltozyma polyspora DSM 70294 ADH (VpADH), Mucor circinelloides ADH (McADH), and Rhodococcus erythropolis PR4ADH (ReADH) were the candidates for which subclones were prepared for protein expression and purification.
(§4) As a routine practice, the crude extracts and purified proteins were assayed for butanol oxidation activity, in order to ensure that the recombinant proteins were active throughout the purification process. […] Alcohol oxidation activities were carried out in 50 mM sodium phosphate buffer at pH 8.8 and aldehyde reduction reactions were assayed in 190 mM potassium phosphate buffer at pH 7.0. […]
(§5) Kinetic constants of the ADH enzymes were calculated and compared to identify those candidate ADH enzymes with the most desirable properties for the conversion of isobutyraldehyde to isobutanol in the last step of the engineered pathway for isobutanol production. […] The kcat/KM is derived from the individual numbers of kcat and KM and not an experimentally determined value. […]
(§6) Seven additional candidate ADH enzymes were synthesized, expressed, and assayed according to methods such as described in Example 2. […] A comparison of KM, KI, and kcat/KM for each candidate enzyme as compared to the same parameter for SadB are given in Table 9 as a percentage of the values determined (Table 7) for SadB. […]

Substrate in data set [10]: CC(C)C=O
Described as above. Format: biochemical, Phenylobacterium zucineum HLK1. Conditions: other: 30° C., pH 7.0, NADH specific.
From the text: as §3, §4, §5, §6

B1: Thermus sp. ATN1 ADH (TADH), SEQ ID NO: 33 (Thermus sp. ATN1) (protein)
chain: MRAVVFENKERVAVKEVNAPRLQHPLDALVRVHLAGICGSDLHLYHGKIPVLPGSVLGHEFVGQVEAVGEGIQDLQPGDWVVGPFHIACGTCPYCRRHQYNLCERGGVYGYGPMFGNLQGAQAEILRVPFSNVNLRKLPPNLSPERAIFAGDILSTAYGGLIQGQLRPGDSVAVIGAGPVGLMAIEVAQVLGASKILAIDRIPERLERAASLGAIPINAEQENPVRRVRSETNDEGPDLVLEAVGGAATLSLALEMVRPGGRVSAVGVDNAPSFPFPLASGLVKDLTFRIGLANVHLYIDAVLALLASGRLQPERIVSHYLPLEEAPRGYELFDRKEALKVLLVVRG
Turning to B1, in data set [1], the Km was determined as 1300 µM, the kcat was 15 s⁻¹ and the kcat/Km came to 11000 M⁻¹ s⁻¹.

B2: horse liver ADH (HLADH), SEQ ID NO: 21 (Equus caballus) (protein)
chain: MSTAGKVIKCKAAVLWEEKKPFSIEEVEVAPPKAHEVRIKMVATGICRSDDHVVSGTLVTPLPVIAGHEAAGIVESIGEGVTTVRPGDKVIPLFTPQCGKCRVCKHPEGNFCLKNDLSMPRGTMQDGTSRFTCRGKPIHHFLGTSTFSQYTVVDEISVAKIDAASPLEKVCLIGCGFSTGYGSAVKVAKVTQGSTCAVFGLGGVGLSVIMGCKAAGAARIIGVDINKDKFAKAKEVGATECVNPQDYKKPIQEVLTEMSNGGVDFSFEVIGRLDTMVTALSCCQEAYGVSVIVGVPPDSQNLSMNPMLLLSGRTWKGAIFGGFKSKDSVPKLVADFMAKKFALDPLITHVLPFEKINEGFDLLRSGESIRTILTF
notes: purchased Sigma A-6128
For B2, in data set [2], the Km was found to be 100 µM, the turnover number (kcat) amounted to 8 s⁻¹ and the kcat/Km worked out at 82000 M⁻¹ s⁻¹. Moreover, in data set [3], the Km result is on record as “KM = 0.4 mM] mM”.

B3: Clostridium beijerinckii ADH (CbADH), SEQ ID NO: 29 (Clostridium beijerinckii) (protein)
chain: MKGFAMLGINKLGWIEKERPVAGSYDAIVRPLAVSPCTSDIHTVFEGALGDRKNMILGHEAVGEVVEVGSEVKDFKPGDRVIVPCTTPDWRSLEVQAGFQQHSNGMLAGWKFSNFKDGVFGEYFHVNDADMNLAILPKDMPLENAVMITDMMTTGFHGAELADIQMGSSVVVIGIGAVGLMGIAGAKLRGAGRIIGVGSRPICVEAAKFYGATDILNYKNGHIVDQVMKLTNGKGVDRVIMAGGGSETLSQAVSMVKPGGIISNINYHGSGDALLIPRVEWGCGMAHKTIKGGLCPGGRLRAEMLRDMVVYNRVDLSKLVTHVYHGFDHIEEALLLMKDKPKDLIKAVVIL
notes: hexa-histidine (pBADHisA) (N); made in house; host or cells: E. coli (BL21-CodonPlus or a proprietary E. coli strain)
As for B3, in data set [4], the Km is 1500 µM, the kcat is 123 s⁻¹ and the kcat/Km came out at 85000 M⁻¹ s⁻¹.

B4: Saccharomyces cerevisiae ADH6 (ScADH6), SEQ ID NO: 22 (Saccharomyces cerevisiae S288C) (protein)
chain: MSYPEKFEGIAIQSHEDWKNPKKTKYDPKPFYDHDIDIKIEACGVCGSDIHCAAGHWGNMKMPLVVGHEIVGKVVKLGPKSNSGLKVGQRVGVGAQVFSCLECDRCKNDNEPYCTKFVTTYSQPYEDGYVSQGGYANYVRVHEHFVVPIPENIPSHLAAPLLCGGLTVYSPLVRNGCGPGKKVGIVGLGGIGSMGTLISKAMGAETYVISRSSRKREDAMKMGADHYIATLEEGDWGEKYFDTFDLIVVCASSLTDIDFNIMPKAMKVGGRIVSISIPEQHEMLSLKPYGLKAVSISYSALGSIKELNQLLKLVSEKDIKIWVETLPVGEAGVHEAFERMEKGDVRYRFTLVGYDKEFSD
notes: as for B3
With B4, in [5], the Km turned out to be 600 µM, the kcat came out at 47 s⁻¹ and the kcat/Km was 81000 M⁻¹ s⁻¹.

B5: Saccharomyces cerevisiae ADH7 (ScADH7), SEQ ID NO: 23 (Saccharomyces cerevisiae S288C) (protein)
chain: MLYPEKFQGIGISNAKDWKHPKLVSFDPKPFGDHDVDVEIEACGICGSDFHIAVGNWGPVPENQILGHEIIGRVVKVGSKCHTGVKIGDRVGVGAQALACFECERCKSDNEQYCTNDHVLTMWTPYKDGYISQGGFASHVRLHEHFAIQIPENIPSPLAAPLLCGGITVFSPLLRNGCGPGKRVGIVGIGGIGHMGILLAKAMGAEVYAFSRGHSKREDSMKLGADHYIAMLEDKGWTEQYSNALDLLVVCSSSLSKVNFDSIVKIMKIGGSIVSIAAPEVNEKLVLKPLGLMGVSISSSAIGSRKEIEQLLKLVSEKNVKIWVEKLPISEEGVSHAFTRMESGDVKYRFTLVDYDKKFHK
notes: as for B3
For B5, in data set [5], the Km turned out to be 300 µM, the kcat turned out to be 36 s⁻¹ and the kcat/Km was determined as 120000 M⁻¹ s⁻¹.

B6: Beijerinckia indica subsp. Indica ATCC 9039 ADH (BiADH), SEQ ID NO: 31 (Beijerinckia indica subsp. indica ATCC 9039) (protein)
chain: MKALVYRGPGQKLVEERQKPELKEPGDAIVKVTKTTICGTDLHILKGDVATCKPGRVLGHEGVGVIESVGSGVTAFQPGDRVLISCISSCGKCSFCRRGMFSHCTTGGWILGNEIDGTQAEYVRVPHADTSLYRIPAGADEEALVMLSDILPTGFECGVLNGKVAPGSSVAIVGAGPVGLAALLTAQFYSPAEIIMIDLDDNRLGLAKQFGATRTVNSTGGNAAAEVKALTEGLGVDTAIEAVGIPATFELCQNIVAPGGTIANVGVHGSKVDLHLESLWSHNVTITTRLVDTATTPMLLKTVQSHKLDPSRLITHRFSLDQILDAYETFGQAASTQALKVIISMEA
B6: the Km entry was “KM (NADH) = 0.06 mM mM” in data set [6], 200 µM in data set [7] and “KM = 4.7 mM] mM” in [8]. Moreover, the kcat in [7] stood at 283 s⁻¹. Also, in data set [7], the kcat/Km came to 1.25e+06 M⁻¹ s⁻¹.

B7: Methylocella silvestris BL2 ADH (MsADH), SEQ ID NO: 35 (Methylocella silvestris BL2) (protein)
chain: MKALVYHGPGQKALEERPKPQIEASGDAIVKIVKTTICGTDLHILKGDVATCAPGRILGHEGVGIIDSVGAGVTAFQPGDRVLISCISSCGKCDYCRRGLYSHCTTGGWILGNEIDGTQAEYVRTPHADTSLYRIPAGADEEALVMLSDILPTGFECGVLNGKVEPGSTVAIVGAGPIGLAALLTAQFYAPGDIIMIDLDDNRLDVARRFGATHTINSGDGKAAEAVKALTGGIGVDTAIEAVGIPATFLLCEDIVAPGGVIANVGVHGVKVDLHLERLWAHNITITTRLVDTVTTPMLLKTVQSKKLDPLQLITHRFTLDHILDAYDTFSRAADTKALKVIVSA
Consider B7, for which, in data set [9], the Km is 60 µM, the kcat was found to be 33 s⁻¹ and the kcat/Km is 530000 M⁻¹ s⁻¹.

B8: Phenylobacterium zucineum HLK1 ADH (PzADH), SEQ ID NO: 34 (Phenylobacterium zucineum HLK1) (protein)
chain: MKALVYGGPGQKSLEDRPKPELQAPGDAIVRIVKTTICGTDLHILKGDVATCAPGRILGHEGVGIVDSVGAAVTAFRPGDHVLISCISACGKCDYCRRGMYSHCTTGGWILGNEIDGTQAEYVRTPHADTSLYPVPAGADEEALVMLSDILPTGFECGVLNGKVAPGGTVAIVGAGPIGLAALLTAQFYSPAEIIMIDLDDNRLGIARQFGATQTINSGDGRAAETVKALTGGRGVDTAIEAVGVPATFELCQDLVGPGGVIANIGVHGRKVDLHLDRLWSQNIAITTRLVDTVSTPMLLKTVQSRKLDPSQLITHRFRLDEILAAYDTFARAADTQALKVIIAA
For B8, in [10], the Km worked out at 100 µM, the catalytic constant (kcat) is 30 s⁻¹ and the kcat/Km is 321000 M⁻¹ s⁻¹.
